Measurements taken from the supplement of paper PMC9170038.

Test system: MS2 coat protein
Assay: apparent KD of MS2 coat protein; higher = weaker reporter binding
Conditions: Eterna round: R107
Method in brief: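 The buffer was 100 mM Tris-HCl pH 7.5 with 80 mM KCl and 4 mM MgCl2, used without or with constant ligand. In it, RNA switches transcribed on-chip from Illumina sequencing clusters were titrated with SNAP-549-labelled MS2 coat protein in twofold steps from 0.7 or 1.5 nM to 3 µM. Apparent KD for each design is the median of its normalised cluster binding-curve fits.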

[1] = input ligand: theophylline 20 uM
[2] = input ligand: theophylline 2 mM
[3] = input ligand: tryptophan 2.4 mM

| Sequence | apparent KD of MS2 coat protein (input ligand: arginine 13.2 mM) | apparent KD of MS2 coat protein (input ligand: none) | apparent KD of MS2 coat protein [1] | apparent KD of MS2 coat protein [2] | apparent KD of MS2 coat protein [3] |
| --- | --- | --- | --- | --- | --- |
| AGCACUGUGACGGCCGCCACUACAUAAGAUGGGUGGUCAGGUUCAUUACAUGAGGAUCACCCAUGUAGGACCGGGUCUCAGUGCA [Omei Trp Exc B A v10] | 7.97 nM | 9.29 nM | 16.5 nM | 10.9 nM | 7.71 nM |
| UAGAUAGAGGGAAGGAGCGCAGUAACAUAACAUGAGGAUCACCCAUGUAAGAAAUUAAUAAUGCAGGUAGGUCGCCCAAGAUGAU [#10 Same State - Arginine B] | 12.4 nM | 13.6 nM | 17 nM | 15.1 nM | 13.9 nM |
| GCCAUCGGCGGAAGCCGAUGGGAUACAGAAGGAGCGUGGAUUAACACAGGUAGGUCGCUGGACAUGAGGAUCACCCAUGUAAUAG [SSAA #8] | 17.4 nM | 26.2 nM | 27.2 nM | 32.4 nM | 21.7 nM |
| UAUCGUCAGACGGCCGCCACUAGAACAUGAGGAUCACCCAUGUAGUGGCCGGAUACCUCAAUAACUAGGACCGGGUCUGACGAAU [(Trp1)-(Ms2)-(T)'-(M)'-(Trp2)_Design17] | 36.6 nM | 52.2 nM | 96.5 nM | 54 nM | 32.7 nM |
| UUAAUCGUGCAUGAUACCAGUAUCCGUAGAUACAUGAGGAUCACCCAUGUCUGGUUGGAAUACCCUUGGCAGCAUGGGUUGAGGA [theeternabot_sameState_MS2_Theo_B_20] | 37.1 nM | – | 224 nM | – | 238 nM |
| GGAAGCAGGACUGAUACCAGUCCAGCGAAUCAUACGACGCAACAUGAGGAUCACCCAUGUGACCCUUGGCAGCAGACUGCUACCG [Same State Theophylline B GF 27] | 33.1 nM | – | 37.2 nM | – | 32.2 nM |
| ACAUGACAACAUGAGGAUCACCCAUGUCAUCGAGGACCGGUACGGCCGCCACUCGGUCAAUAUGAUACUUGUCAUGAACAUGAGG [Exclusion Tryptophan A 2] | 19 nM | – | 25.7 nM | 21.3 nM | – |
| CCUAUCCAGUCGGCCGCCACUGAAAACAGUGGGUGAACAUGAGGAUCACCCAUGUAAUAAUAAAACAGGACCGGGACUGUAUAGG [Ex Tryptophan B 22] | 290 nM | 452 nM | 458 nM | 882 nM | 369 nM |
| UUAUAUUCUCAAUCGCCAUGUGCUUUAGAUACCAGUCUGAUAAAUGACCCUUGGCAGCUAGAGACAUGAGGAUCACCCAUGUCUU [theeternabot_exclusion_MS2_Theo_A_8] | 11.3 nM | – | 13.9 nM | – | 11.2 nM |
| AGAAUAUAGUCGGCCGCCACUCUACAAACAUGAGGAUCACCCAUGUUCACAUAGUGGAAACACAUGAGGACCGGGACAUAGGCAU [#17 Same State - Tryptophan B] | 14 nM | – | 21.4 nM | 18.3 nM | – |
| UAUGCACAUGAGGAUCACCCAUGUAUGGAAGGAGCGGUGAAUAAACCAGGUAGGUCGCCAUGGUGAGGGUCAUCUAUGUAAUCGU [Exclusion - Arginine A (Freestyle 5)] | 51 nM | 47.3 nM | 78.4 nM | 80.3 nM | 59.3 nM |
| GCAUGCGAUACCGAUACCAGCUACUCCAUGGCGCUCCACAUGAGGAUCACCCAUGUAAAUAGCCCUUGGCAGCGGUAUUGAGAUG [Anrabegema] | 16.4 nM | – | 53.9 nM | – | 21 nM |
| GGCACGUACGGAAGGAGCGACUGUUCGACGUGGGUACAUGAGGAUCACCCAUGUCUCCGCAGUCAGGUAGGUCGCCGUACGUGCC [EAB NP+V+V2 #21 +-Same Structure] | 34.3 nM | 42.7 nM | 63.6 nM | 49.8 nM | 38.6 nM |
| CAUAGCAAAAGUGAUACCAGAGUUCGAGGGAACAUGAGGAUCACCCAUGUGCUUGUACAACUCCCUUGGCAGCACAGAGCAAUUA [theeternabot_sameState_MS2_Theo_B_16] | 24.3 nM | – | 22.1 nM | – | 26.9 nM |
